Experimental data reported in US20220275053A1, “MODIFIED […] PEPTIDE LIGANDS” (BicycleTx Limited, priority 2019, published 2022).
Blank lines part the entries; values can stand above or below the molecule they belong to. *1 amine or outer side, *2 acyl side, *3 side chain or, on linkers, in order; H or OH if unused. Where a SMILES comes first, the peptide text is derived from it. Bridges are numbered along the chain shown (N, C = ends). Roman numbers before positions name the chains, in order. [ ]: non-standard residue; d: D form. X1 = N=c1ccc2c(-c3ccc(C(=O)NCCOCCOCCN(CCOCCOCCOCCn4cc(CCC(=O)[*:1])nn4)CCOCCOCCOCCn4cc(CCC(=O)[*:2])nn4)cc3C(=O)O)c3ccc(N)c(S(=O)(=O)O)c3oc-2c1S(=O)(=O)O; TATA = O=C(CC[*:1])N1CN(C(=O)CC[*:2])CN(C(=O)CC[*:3])C1; tBuAla = CC(C)(C)C[C@H](N)C(=O)O; Nle = CCCC[C@H](N)C(=O)O

Experiments:
[1] = target: T1, CD137 (Homo sapiens, UniProt Q07011); test: BCY15416 direct binding to CD4 and CD8 positive T-cells (CD3 stimulated PBMCs, flow cytometry)
T1 construct: Human peripheral blood mononuclear cells (PBMCs) were isolated from buffy coats from two donors; endogenous in cells
T1 sequence (Q07011 24-255): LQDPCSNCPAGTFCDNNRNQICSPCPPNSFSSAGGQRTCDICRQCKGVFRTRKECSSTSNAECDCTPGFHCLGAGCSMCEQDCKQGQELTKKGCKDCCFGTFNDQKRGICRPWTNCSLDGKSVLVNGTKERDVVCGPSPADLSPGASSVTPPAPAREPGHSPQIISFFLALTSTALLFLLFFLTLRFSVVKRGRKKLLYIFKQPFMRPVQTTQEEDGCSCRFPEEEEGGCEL
Procedure: To evaluate the affinity of a CD137 dimeric Bicycle® peptide conjugated to Alexa Fluor® 488, herein referred to as BCY15416, a binding assay utilizing CD3 stimulated primary peripheral blood mononuclear cells (PBMCs) was implemented.
On the day of the experiment, medium was prepared by supplementing RPMI-1640 (Gibco™ 11875-093; with L-glutamine) with 10% heat-inactivated fetal bovine serum (FBS; Corning® 35-011-CV), 10 mM HEPES (Gibco™ 15-630-080), and 1% Penicillin Streptomycin (Corning™ 30-002-CI), herein referred to as working medium. Previously isolated human peripheral blood mononuclear cells (PBMCs), from whole blood, were quick thawed in a water bath and washed once at 500 rpm for 5 minutes in 10 mL of prewarmed working medium. PBMC pellet was then resuspended in working medium at a concentration of 3×10^6 cells/mL. Subsequently, 100 μL of cell suspension was plated in a flat-bottom tissue-culture coated 96-well plate (Greiner CellStar® 655180). Anti-human CD3 (200 ng/mL; BioLegend® 317347; clone OKT3) was added to the cell plate (100 μL/well) at a final concentration of 100 ng/mL Whereas, for unstimulated controls 100 μL of working medium was added. Cells were incubated overnight (12-24 hours) at 37° C., 5% CO2.
Plates were then incubated for 1 hour at 37° C., 5% CO2. Post-incubation, plate was centrifuged at 500 rpm for 5 minutes and supernatant discarded. Samples were then washed once in 200 μL of 1× phosphate buffer saline (PBS; Gibco™ 10-010-023) at 500 rpm for 5 minutes. Cells were resuspended in 200 μL of PBS and transferred to a 96-well V-bottom polypropylene plate (Greiner Bio-One 651201). Samples were then centrifuged at 500 rpm for 5 minutes and supernatant was discarded.
Preparation of samples for flow cytometry: Zombie Violet™ Fixable Viability Dye (BioLegend® 423113) was prepared as a 1:1000 dilution in PBS and 100 μL of viability dye was added to each well and incubated in the dark at 4° C. for 30 minutes. Subsequently, wells were washed with 100 μL of PBS for 5 minutes at 500 rpm and supernatant was discarded. Next, human TruStain FcX™ block (BioLegend® 422302) was prepared by diluting 1.5 μL of FcX in 25 μL of stain buffer (1×PBS supplemented with 2% FBS). Fc block solution (25 μL/well) was incubated at room temperature (RT) for 10 minutes in the dark. […] Cells resuspended in 200 μL of stain buffer were kept at 4° C. and in the dark until read by BD FACSCelesta™ flow cytometer and FCS files were analyzed in FlowJo™.
Cells were gated on lymphocytes→singlets→live→CD4+ or CD8+→CD137+/− and the geometric mean of Alexa Fluor® 488 (conjugated to BCY15416) was calculated from the CD137+ and CD137− populations shown below. […] Calculated binding affinity (kd,app) for each donor appear in Table 5.

[2] = target: T2, CD137 (Macaca fascicularis, UniProt A9YYE7); test: Fluorescent multimer cyno immune cell direct binding assay (FACS); set-up: species or system cynomolgus monkey; conditions: FIG. 4
T2 construct: Cryopreserved PBMCs were purchased from Worldwide Primates and thawed according to standard protocol
T2 sequence (A9YYE7 1-254): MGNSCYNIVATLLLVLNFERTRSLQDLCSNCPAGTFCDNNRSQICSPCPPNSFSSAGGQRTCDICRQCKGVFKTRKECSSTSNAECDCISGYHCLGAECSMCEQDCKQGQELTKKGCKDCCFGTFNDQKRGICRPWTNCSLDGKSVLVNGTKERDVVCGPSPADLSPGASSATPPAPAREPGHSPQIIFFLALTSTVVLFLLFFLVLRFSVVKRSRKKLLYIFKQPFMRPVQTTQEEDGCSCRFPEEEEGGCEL
Procedure: Cryopreserved PBMCs were purchased from Worldwide Primates and thawed according to standard protocol. CD8+ T cells were then isolated from the PBMCs with a MACS CD8+ T cell isolation kit (negative bead selection) according to the manufacturer's protocol (Miltenyi Biotec). Purified CD8+ T cells were then activated for 48 hours 96 well plates coated with CD3 antibody (1 μg/ml) in R10 media (RPMI1640+10% FBS+1× Pen-Strep). Cells were incubated in R10 media in the presence of fluorescent CD137 multimers or a fluorescent EphA2 bicyclic peptide monomer (BCY0215), which was used as a negative control, at different concentrations for 1 hour at 37° C. After 1 hour, cells were transferred to a V-bottom plate and washed and stained for FACs analysis. Briefly, cells were stained in 1× Live/Dead BV510 for 15 minutes, washed, and then surface stained with the following antibodies: CD8-BV785 and CD137-PECy5 (diluted 1:100 in 2% FBS/PBS). Cells were then washed and fixed in 2% paraformaldehyde (PFA). Cells were run on the BD FACSCelesta and FCS files were analyzed in FlowJo. Cells were gated on Single/Live/Lymphocytes/CD8+/CD137+ or CD137−. The FITC geometric mean of the CD137+ population is shown.

[3] = target: T1, CD137; test: Fluorescent multimers human immune cell direct binding assay (FACS); conditions: FIG. 3A
Procedure: Human peripheral blood mononuclear cells (PBMCs) were isolated from buffy coats from two donors according to standard protocols. PBMCs were used for the next step or alternatively CD8+ T cells were then isolated from the PBMCs with a MACS CD8+ T cell isolation kit (negative bead selection) according to the manufacturer's protocol (Miltenyi Biotec). PBMCs or purified CD8+ T cells were then activated for 24 hours in tissue culture flasks coated with CD3 antibody in R10 media (RPMI1640+10% FBS+1× Pen-Strep). Alternatively, cells were incubated in R10 media containing 1 μg/ml of soluble CD3 antibody (OKT3) for 24 hours. Cells were then transferred to CD3-coated 96-well flat bottom plates and incubated in R10 media in the presence of fluorescent CD137 multimers or a fluorescent EphA2 bicyclic peptide monomer (BCY0215), which was used as a negative control, at different concentrations for 1 hour at 37° C. After 1 hour, cells were transferred to a V-bottom plate and washed and stained for FACs analysis. Briefly, cells were stained in 1× Live/Dead BV510 for 15 minutes, washed, and then surface stained with the following antibodies: CD8-BV785 (or CD3-BV605) and CD137-PECy5 (diluted 1:100). Cells were then washed and fixed in 2% paraformaldehyde (PFA). Cells were run on the BD FACSCelesta and FCS files were analyzed in FlowJo. […]

[4] = target: T3, human CD137 (human, UniProt Q07011 24-255); test: flow cytometry, direct binding to activated human CD8+/CD137+ T cells
T3 construct: whole, on cells; Endogenous receptor on CD3-stimulated human PBMCs or purified CD8+ T cells; also called CD137 receptor; 4-1BB
T3 sequence (Q07011 24-255): as the sequence (Q07011 24-255) above

Molecule: CCCC[C@@H]1NC(=O)[C@H](Cc2ccc(O)cc2)NC(=O)[C@@H]2CCCN2C(=O)[C@H](CC(=O)O)NC(=O)[C@H](C)NC(=O)[C@H](Cc2ccccc2)NC(=O)[C@@H]2CSCCC(=O)N3CN(CN(C3)C(=O)CCSC[C@@H](C(=O)N[C@@H](C)C(N)=O)NC1=O)C(=O)CCSC[C@H](NC(C)=O)C(=O)N[C@@H](CC(C)(C)C)C(=O)N1CCC[C@H]1C(=O)N[C@@H](CCC(=O)O)C(=O)N[C@H](CCCCNC(=O)CCc1cn(CCOCCOCCOCCN(CCOCCOCCNC(=O)c3ccc(-c4c5ccc(=N)c(S(=O)(=O)O)c-5oc5c(S(=O)(=O)O)c(N)ccc45)c(C(=O)O)c3)CCOCCOCCOCCn3cc(CCC(=O)NCCCC[C@H]4NC(=O)[C@H](CCC(=O)O)NC(=O)[C@@H]5CCCN5C(=O)[C@H](CC(C)(C)C)NC(=O)[C@@H](NC(C)=O)CSCCC(=O)N5CN6CN(C5)C(=O)CCSC[C@H](NC(=O)[C@H](Cc5ccc(O)cc5)NC(=O)[C@@H]5CCCN5C4=O)C(=O)N[C@@H](Cc4ccccc4)C(=O)N[C@@H](C)C(=O)N[C@@H](CC(=O)O)C(=O)N4CCC[C@H]4C(=O)N[C@@H](Cc4ccc(O)cc4)C(=O)N[C@@H](CCCC)C(=O)N[C@H](C(=O)N[C@@H](C)C(N)=O)CSCCC6=O)nn3)nn1)C(=O)N1CCC[C@H]1C(=O)N[C@@H](Cc1ccc(O)cc1)C(=O)N2 [BCY15416] (I: Ac-C[tBuAla]PE[dK]PYCFADPY[Nle]CA-NH2 / II: Ac-C[tBuAla]PE[dK]PYCFADPY[Nle]CA-NH2; linker I:1-I:8-I:15, II:1-II:8-II:15 via TATA; linker I:5-II:5 via X1; C-terminus assumed)
binding to CD137+ T-cells (Alexa Fluor 488 geometric mean) ([1]; CD137+CD4+ and CD137+CD8+ T-cells, three human PBMC donors, FIG. 6): binding exclusively to the CD137+CD4+ T-cells and CD137+CD8+ T-cells, in a dose-dependent manner
binding to CD137− T cells ([1]; CD137− CD4 and CD8 T cells, FIGS. 6A and 6B): does not bind
binding affinity in CD137− populations ([1]; CD137− populations for both CD4+ and CD8+): unable to be calculated
binding affinity (range in words) ([1]; both CD137+CD4+ and CD137+CD8+ populations): sub-nanomolar range

Molecule: BCY7340: Fluorescent CD137 dimer: formula (II), CHM C, 2 x BCY7077, SA n=23, fluorescein modifier (CIEEGQYCFADPYMCAX; not fully specified; non-natural residues; cyclised or stapled)
binding potency relative to fluorescent trimer (BCY9932) and tetramer (BCY9931) ([2]; cyno CD137+ T cells): less potent binding
binding to cyno CD137+ T cells (FITC geometric mean) ([2]; purified CD8+/CD137+ T cells from cynomolgus monkey PBMCs, 1 hour at 37° C.): bind to cyno CD137+ T cells in a dose responsive manner
binding potency relative to fluorescent trimer (BCY9932) and tetramer (BCY9931) ([3]; human CD137+ T cells): slightly less potent binding
binding to human CD137+ T cells (FITC geometric mean) ([3]; purified CD8+/CD137+ T cells from human PBMCs, 1 hour at 37° C.): bind to human CD137+ T cells in a dose responsive manner

binding result [4]: binds
B1: BCY7340 (peptide)
peptide: CIEEGQYCFADPYMCAX
modifications: N-terminal acetyl; C-terminal Pra (propargylglycine) amide (CONH2); the three Cys cyclised on the TATA scaffold; joined through Pra to spacer SA (n = 23) on central hinge moiety C; fluorescein on the hinge without spacer (formula (II))
notes: also called fluorescent CD137 multimer; fluorescent CD137 dimer
